In patent US20250368734A1 (ANTENGENE BIOLOGICS, published 2025):
Where a chain is given by its changes, count along the chain named.

T1: mouse GPRC5D (mouse, UniProt Q9JIL6 1-344)
T1 construct: whole, on cells; HEK293T-mGPRC5D cells; also called mGPRC5D; murine GPRC5D
T1 sequence (looked up): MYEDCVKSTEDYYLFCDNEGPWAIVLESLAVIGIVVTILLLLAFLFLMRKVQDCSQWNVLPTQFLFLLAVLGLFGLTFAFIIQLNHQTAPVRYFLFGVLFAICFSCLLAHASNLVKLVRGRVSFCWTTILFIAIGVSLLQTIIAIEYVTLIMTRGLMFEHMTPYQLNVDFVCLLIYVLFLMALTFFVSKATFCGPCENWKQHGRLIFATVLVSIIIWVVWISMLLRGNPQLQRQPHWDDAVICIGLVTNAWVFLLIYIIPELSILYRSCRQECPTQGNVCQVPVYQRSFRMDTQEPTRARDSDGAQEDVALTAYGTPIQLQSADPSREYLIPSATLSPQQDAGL

B1: Bis-98A3A8 (bispecific antibody)
chain 1: EVQLQQSGPELVKPGASVKMSCKASGYTFTYYVTHWVRQKPGQGLEWIGYINPYNDGTMFNEKFKGKATLTSDKSSSTAYMEFSSLTSEDSAVFYCARGGVRRYFDVWGAGTTVTVSS
chain 2: GGGGSGGGGSGGGGSEVQLVESGGGLVQPGRSLRLSCAASGFTFDNYAMHWVRQAPGKGLEWVSGISWNSGSIGYADSVKGRFTISRDNAKNSLYLQMNSLRAEDTALYYCAKDSRGYGDYSRGGAYWGQGTLVTVSSEIVMTQSPATLSVSPGERATLSCRASQSVSSNLAWYQQKPGQAPRLLIYGASTRATGIPARFSGSGSGTEFTLTISSLQSEDFAVYYCQQYNNWPWTFGQGTKVEIK
chain 3: DIQMTQSPSSLSASLGERVSLTCRASQDIGSNLNWLQQKPDGTIKRLIYATSSLDSGVPKRFSGSRSGSDYSLTINSLESEDFVDYYCLQYASFPYTFGGGTKLEIK
B2: Bis-96C9E7 (bispecific antibody)
chain 1: EVQLQQSGPELVKPGASVKMSCKASGYTFTYYILHWVKQKPGQGLEWIGYFNPYNDGNKFNERFRGKATLTSDKSSSTAYMELNSLTSEDSAVYFCARGGVRRYFDVWGAGTTVTVSS
chain 2: B1 chain 2
chain 3: B1 chain 3 with K39E, Y49S, S52F, N76S, D85N
B3: Bis-116F1G6 (bispecific antibody)
chain 1: B1 chain 1 with Q6H, Y31T, T34M, R38K, M59K, F60Y, F83L, F94Y
chain 2: B1 chain 2
chain 3: B1 chain 3 with K39E, D41N, S52F, S53T, N76S
B4: Bis-110B4H5 (bispecific antibody)
chain 1: EVQLQQSGPELVKPGASVKMSCKASGYTFTFYIMHWVKQKPGQGPEWIGYINPYNDGTKYNAKFKGKATLSSDRSSSTAYMELSSLTSEDSAVYYCARGGVRRYFDVWGAGTPVTVSS
chain 2: B1 chain 2
chain 3: B1 chain 3 with A25S, K39E, S52F, D70H, N76S, D85V, A92G
B5: Bis-108C4C12 (bispecific antibody)
chain 1: B2 chain 1 with Y31S, I33V, L34I, P41T, N58T, F60Y, R63E, R65K, S77N, E89D
chain 2: B1 chain 2
chain 3: B1 chain 3 with K39E, S52F, S53G, N76S, L89Q
B6: Bis-116G1G4 (bispecific antibody)
chain 1: EVQLQQSGPELVKPGASVKMSCKASGYTFTYYIMHWVKQEPGQGLQWIGYINPYNDGAYYSARFKGKATLTSDKSSSTAYMDLTSLTSEDSAVYYCARGGVRRYFDVWGAGTTVTVSS
chain 2: B1 chain 2
chain 3: B1 chain 3 with S20I, N34I, S52F, S53N, P59S, N76S, E79D, F94S
B7: Bis-26E2H6 (bispecific antibody)
chain 1: EVQLVESGGDLVKPGGSLKLSCAASGFTFSSYGMSWVRQTPDKRLEWVATISSGGSYTYYPDSVKGRFTISRDNAKNTLYLQMSSLKSEDTAMYYCARHATDYWGQGTTLTVSS
chain 2: B1 chain 2
chain 3: QIVLTQSPAIMSASPGEKVTMTCSASSSVSYMHWYQQKSGTSPKRWIYDTSKLASGVPARFSGSGSGTSYSLTISSMEAEDAATYYCQQWSSNPLTFGAGTKLELK
B8: 36A3G8 (antibody, V domains shown)
VH: QVQLQQSGAELARPGASVKMSCKASGYTFTTYTMHWIKQRPGQDLEWIGFINPSSGYTKYNQNFKDKATLTADKSSTTAYMQLNSLTSEDSAVYYCASPYGNIYFDVWGTGTTVTVSS
VL: DIVMTQSQKFMSTAVGDRVSITCKASQNVGTAVAWYQQKPGQSPKLLIYSASNRYTGVPDRFTGSGSGTDFTLTISNMQSEDLADYFCQQYSSYPLTFGAGTKLELK
notes: Mouse monoclonal antibody from hybridoma subclone
B9: 26E2H6 (antibody, V domains shown)
VH: B7 chain 1
VL: B7 chain 3
notes: as for B8
B10: 12G12C2 (antibody, V domains shown)
VH: QIQLVQSGPELKMPGETVKISCKASGYTFTTYGLSWVKQAPGKGLKWMGWINTFSGVPIYADDFKGRFAFSLETSASTAYLQINNLKNEDTATYFCARWGIRQRGDYWGQGATLTVSS
VL: B7 chain 3 with M32L, A59V, G67E, S91T, L95P, A99G, L105I
notes: as for B8
B11: 20C4E1 (antibody, V domains shown)
VH: EVRLVESGGALVRPGGSLKLSCAASGFTFSDYGMHWVRQAPEKGLEWIAFISSVSFTIYYADTVKGRFTISRDNAKNTLFLQMTSLRSEDTALYYCTRLGPHWYFDVWGTGTTVTVSS
VL: DVVLTQTPLSLPVSLGDQASISCRSSQSLVYSNGNTYLHWFLQKPGQSPQLLIYKVSNRFSGVPDRFSGSGSGTDFTLKISRVEAEDLGVYFCSQSTPVPTFGGGTKLEIK
notes: as for B8
B12: 28H9C12 (antibody, V domains shown)
VH: EVQLVESGGGLVKPGGSLKLSCAASGFTFSDYGMHWVRQAPEKGLEWVAYISSGSSTIYYADTVKGRFTISRDNAKNTLFLQMTSLRSEDTAIYYCVRRPWYFDVWGTGTTVTVSS
VL: DVLMTQTPLSLPVSLGDQASISCRSSQSIVHSNGNTYLQWYLQKPGQSPKLLIYKVSNRFSGVPDRFSGSGSGTDFTLKISRLEAEDLGVYYCFQGSHVPFTFGSGTKLEIK
notes: Mouse monoclonal antibody from hybridoma subclone; also called 281H9C12
B13: 15D6G2 (antibody, V domains shown)
VH: EVQLVESGGDLVKPGGYLRLSCAASGFTFSSHGMSWVRQTPDKRLEWVATISSGGRNTYYPDSVKGRFTISRDNAKNILYLQMSSLKSEDTAMFYCTRHSGDAMDYWGQGTSVTVSS
VL: DILLTQSPAILSVSPGERVSFSCRASQSIGTNIHWYQQRTNGSPRLLIKYASESISGIPSRFSGSGSGTDFTLSINSVESEDIADYYCQQSKSWPTFGGGTKLEIK
notes: as for B8

molecular target: T2, human GPRC5D (human, UniProt Q9NZD1 1-345); experiment: cell-based or functional assay
T2 sequence (Q9NZD1 whole entry): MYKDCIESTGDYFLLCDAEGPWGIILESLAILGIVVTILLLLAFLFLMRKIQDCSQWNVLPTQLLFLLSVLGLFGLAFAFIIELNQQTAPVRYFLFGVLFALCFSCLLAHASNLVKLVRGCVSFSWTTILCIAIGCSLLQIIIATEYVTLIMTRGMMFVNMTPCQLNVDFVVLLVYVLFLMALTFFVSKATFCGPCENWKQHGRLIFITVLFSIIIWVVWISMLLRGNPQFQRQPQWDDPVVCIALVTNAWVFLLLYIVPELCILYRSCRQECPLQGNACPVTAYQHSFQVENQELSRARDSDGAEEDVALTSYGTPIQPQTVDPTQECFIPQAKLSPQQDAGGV

EC50 [nM]	Binder	Top killing % [%]
2.95	B1	64.4
2.34	B2	66.2
1.66	B3	71.8
3.62	B4	61.5
1.44	B5	67.9
1.88	B6	69.2
30.5	B7	79.1

molecular target: T2, human GPRC5D; experiment: FACS, OPM-2 cells; note: test concentration or dose not given here
Description: (§1) The subcloning plates were screened by Mirrorball assay and the subclones with good binding ability were expanded to 24-wells for confirmation tests. The specificity and cross-reactivity of these subclones were confirmed with FACS analysis. Briefly, parental HEK293T, HEK293T cells stably over-expressing human GPRC5D protein (i.e., HEK293T-hGPRC5D), HEK293T cells stably over-expressing cynomolgus monkey GPRC5D protein (i.e., HEK293T-cynoGPRC5D), HEK293T cells stably over-expressing mouse GPRC5D protein (i.e., HEK293T-mGPRC5D), and OPM2 cells were incubated with antibodies produced by each subclone, respectively. Fluorescent dye-conjugated secondary antibody was used to detect the binding of the primary antibody with the cells. Median fluorescence intensity (MFI) was measured by FACS analysis,
(§2) As a result, 21 antibodies were discovered with unique sequences showing positive binding with HEK293T-hGPRC5D and OPM2 cells. Among which, some clones could also bind with HEK293T-cynoGPRC5D and/or HEK293T-mGPRC5D. […] ATG596 was a positive human IgG1 control antibody which comprises a VH region having an amino acid sequence as set forth in SEQ ID NO: 199, and a VL region having an amino acid sequence as set forth in SEQ ID NO: 200.

% Positive [%]	MFI	Binder
96.3	791	B8
97.9	1150	B9
98.4	1070	B10
99.5	2020	B11
97.9	1120	B12
99.4	1740	B13

molecular target: T2, human GPRC5D; experiment: FACS, HEK293T-hGPRC5D cells; note: test concentration or dose not given here
Description: as §1, §2

% Positive [%]	MFI	Binder
99.3	31800	B8
99.8	27200	B9
98.7	32100	B10
99.9	38900	B11
99.6	25100	B12
99.5	32800	B13

molecular target: T1, mouse GPRC5D; experiment: FACS, HEK293T-mGPRC5D cells; note: test concentration or dose not given here
Description: as §1, §2

% Positive [%]	MFI	Binder
68.4	370	B9
99	7080	B10
82.7	592	B11
1.6	121	B12
14.6	150	B13

molecular target: T3, cynomolgus monkey GPRC5D (cynomolgus monkey); experiment: FACS, HEK293T-cynoGPRC5D cells; note: test concentration or dose not given here
T3 construct: whole, on cells; HEK293T-cynoGPRC5D cells; also called cynoGPRC5D
Description: as §1, §2

% Positive [%]	MFI	Binder
96.6	3110	B8
1	116	B9
96.2	24700	B10
99.2	31300	B11
99.8	18000	B12
99.7	7760	B13
